Results: publication PMC2935386, “Dissecting the Relation between a Nuclear Receptor and GATA: Binding Affinity Studies of Thyroid Hormone Receptor and GATA2 on TSHβ Promoter”

Tests used:
[1] = molecular target: GATA2-Zf;TRβ1 DBD-LBD (TR DL, TRβ1ΔAB) (;human, UniProt P23769;P10828 291-412;102-461, |); assay: fluorescence anisotropy; T3; Hill n 1±0.2; Fluorescence anisotropy: 10 nM DNA, 20 mM Hepes pH 8.0, 50 mM NaCl, 1 mM MgCl2, 3 mM DTT, 5% glycerol, 10°C; agarose gel 1.3% in 0.5x TBE; conditions: protein: recombinant;recombinant; tags: His, thrombin treated;His (pET28a); copies: 1;1; label: 5' fluorescein (FITC) on forward strand; blunt
Sequence of GATA2-Zf;TRβ1 DBD-LBD (TR DL, TRβ1ΔAB) (P23769 291-412, stated change not applied, chain 1 of 2): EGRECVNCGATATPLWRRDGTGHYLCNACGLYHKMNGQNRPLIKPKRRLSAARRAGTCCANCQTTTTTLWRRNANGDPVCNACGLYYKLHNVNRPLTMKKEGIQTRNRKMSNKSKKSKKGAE
Sequence of GATA2-Zf;TRβ1 DBD-LBD (TR DL, TRβ1ΔAB) (P10828 102-461, stated change not applied, chain 2 of 2): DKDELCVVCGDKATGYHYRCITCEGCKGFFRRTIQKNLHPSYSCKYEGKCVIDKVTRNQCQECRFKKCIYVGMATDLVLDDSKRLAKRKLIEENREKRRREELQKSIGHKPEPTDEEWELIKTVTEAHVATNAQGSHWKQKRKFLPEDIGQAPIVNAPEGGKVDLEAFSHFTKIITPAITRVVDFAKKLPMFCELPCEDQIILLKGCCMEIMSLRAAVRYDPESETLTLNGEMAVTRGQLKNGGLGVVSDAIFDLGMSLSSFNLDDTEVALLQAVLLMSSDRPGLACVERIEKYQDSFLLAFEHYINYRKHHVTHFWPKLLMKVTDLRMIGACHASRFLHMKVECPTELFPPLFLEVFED

[2] = molecular target: T1, TRβ1 DBD-LBD (TR DL, TRβ1ΔAB);RXRα1 DBD-LBD (RXR DL, RXRα1ΔAB) (human;, UniProt P10828;P19793 102-461;126-462, |); assay: fluorescence anisotropy; T3; Hill n 3.7±1; text refers to previous studies [36],[37] but listed in this paper's Table 1 and Fig. 2; Fluorescence anisotropy: 10 nM DNA, 20 mM Hepes pH 8.0, 50 mM NaCl, 1 mM MgCl2, 3 mM DTT, 5% glycerol, 10°C; agarose gel 1.3% in 0.5x TBE; conditions: protein: recombinant;recombinant; tags: His (pET28a);His (pET28a); copies: 1;1; label: 5' fluorescein (FITC) on forward strand; blunt
T1 sequence (P10828 102-461, stated change not applied, chain 1 of 2): as the sequence (P10828 102-461, stated change not applied, chain 2 of 2) above
T1 sequence (P19793 126-462, stated change not applied, chain 2 of 2): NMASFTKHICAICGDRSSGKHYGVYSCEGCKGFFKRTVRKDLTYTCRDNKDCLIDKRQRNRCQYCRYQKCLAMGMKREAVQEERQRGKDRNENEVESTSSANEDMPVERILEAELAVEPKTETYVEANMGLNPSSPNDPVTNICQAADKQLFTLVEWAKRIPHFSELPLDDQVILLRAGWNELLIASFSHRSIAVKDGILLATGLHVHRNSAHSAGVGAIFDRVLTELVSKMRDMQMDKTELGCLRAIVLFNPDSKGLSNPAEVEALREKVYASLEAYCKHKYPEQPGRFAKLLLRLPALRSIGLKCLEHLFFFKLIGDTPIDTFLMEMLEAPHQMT

[3] = molecular target: T1, TRβ1 DBD-LBD (TR DL, TRβ1ΔAB);RXRα1 …; assay: fluorescence anisotropy; T3; Hill n 1.8±0.1; Fluorescence anisotropy: 10 nM DNA, 20 mM Hepes pH 8.0, 50 mM NaCl, 1 mM MgCl2, 3 mM DTT, 5% glycerol, 10°C; agarose gel 1.3% in 0.5x TBE; conditions: protein: recombinant;recombinant; tags: His (pET28a);His (pET28a); copies: 1;1; label: 5' fluorescein (FITC) on forward strand; blunt

B1: TSH GATA-RE (dsDNA)
DNA 1: TCAATAGATGCTTTTCAGATAAGAA
DNA 2: TTCTTATCTGAAAAGCATCTATTGA
**Q.** B1 was tested. Which Kd [1] did it give?
**A.** 38.6 ± 7.9 nM

B2: DR4 TRE (dsDNA)
DNA 1: AGTTCAGGTCACAGGAGGTCAGAG
DNA 2: CTCTGACCTCCTGTGACCTGAACT
**Q.** How did the Kd [2] turn out when B2 was run?
**A.** 39.4 ± 2.2 nM

B3: GATA-RE (canonical) (dsDNA)
DNA 1: CACTTGATAACAGAAAGTGATAACTCT
DNA 2: AGAGTTATCACTTTCTGTTATCAAGTG
**Q.** How did the Kd [1] turn out when B3 was run?
**A.** 140 ± 29.8 nM

B4: TSH NRE (dsDNA)
DNA 1: TGGGTCACCACAGCATCTGCTCACCAATGCAAAGT
DNA 2: ACTTTGCATTGGTGAGCAGATGCTGTGGTGACCCA
**Q.** B4 was tested. Which Kd [3] did it give?
**A.** 720 ± 19 nM
